Where two headings read alike, the source gives them in different places.
Experiments:
[1] = target: noumeavirus NMV_189 (noumeavirus); assay: crystal structure
[2] = target: noumeavirus NMV_189 (noumeavirus)
[3] = target: zamilon vitis Zav_19 (zamilon vitis virophage)
[4] = target: zamilon vitis Zav_19 (zamilon vitis virophage); assay: crystal structure

Row | Substance | stoichiometry N [1] | stoichiometry N [2] | stoichiometry N [3] | stoichiometry N [4]
1 | noumeavirus NMV_189 (natural protein) | 3 | 3 | – | –
2 | zamilon vitis Zav_19 (natural protein) | – | – | 3 | 3

— publication doi:10.1101/2023.01.23.525297
